Test [1] concerns the target His-tagged IDO1 human recombinant protein (71182, BPS Biosciences) (UniProt P14902). The experiment in a line: ELISA. On the technique in general: An ELISA detects its analyte on a solid surface through an enzyme-linked reagent.
The next test concerns the target Human IDO1 (UniProt P14902). Briefly: ELISA.

The term EC50 denotes the concentration needed to bring the measured effect to its halfway point.

Chain of Human IDO1 (P14902 2-403): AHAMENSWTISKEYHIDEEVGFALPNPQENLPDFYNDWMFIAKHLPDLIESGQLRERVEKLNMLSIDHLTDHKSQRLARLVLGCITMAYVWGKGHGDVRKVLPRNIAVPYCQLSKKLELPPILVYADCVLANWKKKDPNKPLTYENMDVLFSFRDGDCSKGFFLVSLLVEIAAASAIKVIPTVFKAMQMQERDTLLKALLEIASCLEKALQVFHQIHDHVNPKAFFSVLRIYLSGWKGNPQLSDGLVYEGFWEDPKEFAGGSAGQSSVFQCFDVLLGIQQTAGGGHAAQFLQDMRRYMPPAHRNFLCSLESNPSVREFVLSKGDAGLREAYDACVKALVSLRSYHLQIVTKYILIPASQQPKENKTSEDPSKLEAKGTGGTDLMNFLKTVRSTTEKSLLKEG
Chain of His-tagged IDO1 human recombinant protein (71182, BPS Biosciences) (P14902 2-403): as above

As for Biotin-PEG3-Cy(nlf(Me-Trp)a), the EC50 in test [1] was determined as 104 nM.
In turn, w--ray had an EC50 in the test with Human IDO1 of 79 nM.
Same read-out and setting: the result for ww(F-Phe) reads 96 nM; that for yray, 113 nM.

Values taken from patent US20180355003A1.
